Measurements from US20130089868A1.

Target: MLS-NR2B (mitochondrial targeting signal sequence, myc-epitope, GST and NR2B residues 1271-1311) [GST: P08515]
Experiment: percentage of green fluorescent HEK-293 cells with GFP clustering after Ca^2+ influx (FIG. 5)

With “GFP-T286D-α-CaMKII (from UniProt P11275 1-478) (enzyme)” the fold increase of the cell count against wild-type GFP-α-CaMKII was > 2 fold.
